The values that follow come from patent US20170044609.

Data set [1] has as its system SAF-A (hnRNPU) (Mus musculus). To be noted: RAP-MS, UV crosslinked, denaturing.
Data set [2] has as its system hnRNPM (Mus musculus). To be noted: RAP-MS, UV crosslinked, denaturing.
For data set [3], the system named is CELF1 (Mus musculus). To be noted: UV crosslinked RIP; RAP-MS.
The test system of data set [4] is MYEF2 (Mus musculus). To be noted: UV crosslinked RIP; RAP-MS.
Data set [5] relates to RALY. To be noted: UV crosslinked RIP; RAP-MS.
Data set [6] has as its system RBM15 (Mus musculus). To be noted: UV crosslinked RIP; RAP-MS.
The subject of data set [7] is hnRNPC. To be noted: UV crosslinked RIP; RAP-MS.
Data set [8] addresses SHARP (SPEN) (Mus musculus) (UniProt Q62504). To be noted: UV crosslinked RIP-qPCR.
Chain of UniProt Q62504 (Q62504 whole entry, the tested form may be a part): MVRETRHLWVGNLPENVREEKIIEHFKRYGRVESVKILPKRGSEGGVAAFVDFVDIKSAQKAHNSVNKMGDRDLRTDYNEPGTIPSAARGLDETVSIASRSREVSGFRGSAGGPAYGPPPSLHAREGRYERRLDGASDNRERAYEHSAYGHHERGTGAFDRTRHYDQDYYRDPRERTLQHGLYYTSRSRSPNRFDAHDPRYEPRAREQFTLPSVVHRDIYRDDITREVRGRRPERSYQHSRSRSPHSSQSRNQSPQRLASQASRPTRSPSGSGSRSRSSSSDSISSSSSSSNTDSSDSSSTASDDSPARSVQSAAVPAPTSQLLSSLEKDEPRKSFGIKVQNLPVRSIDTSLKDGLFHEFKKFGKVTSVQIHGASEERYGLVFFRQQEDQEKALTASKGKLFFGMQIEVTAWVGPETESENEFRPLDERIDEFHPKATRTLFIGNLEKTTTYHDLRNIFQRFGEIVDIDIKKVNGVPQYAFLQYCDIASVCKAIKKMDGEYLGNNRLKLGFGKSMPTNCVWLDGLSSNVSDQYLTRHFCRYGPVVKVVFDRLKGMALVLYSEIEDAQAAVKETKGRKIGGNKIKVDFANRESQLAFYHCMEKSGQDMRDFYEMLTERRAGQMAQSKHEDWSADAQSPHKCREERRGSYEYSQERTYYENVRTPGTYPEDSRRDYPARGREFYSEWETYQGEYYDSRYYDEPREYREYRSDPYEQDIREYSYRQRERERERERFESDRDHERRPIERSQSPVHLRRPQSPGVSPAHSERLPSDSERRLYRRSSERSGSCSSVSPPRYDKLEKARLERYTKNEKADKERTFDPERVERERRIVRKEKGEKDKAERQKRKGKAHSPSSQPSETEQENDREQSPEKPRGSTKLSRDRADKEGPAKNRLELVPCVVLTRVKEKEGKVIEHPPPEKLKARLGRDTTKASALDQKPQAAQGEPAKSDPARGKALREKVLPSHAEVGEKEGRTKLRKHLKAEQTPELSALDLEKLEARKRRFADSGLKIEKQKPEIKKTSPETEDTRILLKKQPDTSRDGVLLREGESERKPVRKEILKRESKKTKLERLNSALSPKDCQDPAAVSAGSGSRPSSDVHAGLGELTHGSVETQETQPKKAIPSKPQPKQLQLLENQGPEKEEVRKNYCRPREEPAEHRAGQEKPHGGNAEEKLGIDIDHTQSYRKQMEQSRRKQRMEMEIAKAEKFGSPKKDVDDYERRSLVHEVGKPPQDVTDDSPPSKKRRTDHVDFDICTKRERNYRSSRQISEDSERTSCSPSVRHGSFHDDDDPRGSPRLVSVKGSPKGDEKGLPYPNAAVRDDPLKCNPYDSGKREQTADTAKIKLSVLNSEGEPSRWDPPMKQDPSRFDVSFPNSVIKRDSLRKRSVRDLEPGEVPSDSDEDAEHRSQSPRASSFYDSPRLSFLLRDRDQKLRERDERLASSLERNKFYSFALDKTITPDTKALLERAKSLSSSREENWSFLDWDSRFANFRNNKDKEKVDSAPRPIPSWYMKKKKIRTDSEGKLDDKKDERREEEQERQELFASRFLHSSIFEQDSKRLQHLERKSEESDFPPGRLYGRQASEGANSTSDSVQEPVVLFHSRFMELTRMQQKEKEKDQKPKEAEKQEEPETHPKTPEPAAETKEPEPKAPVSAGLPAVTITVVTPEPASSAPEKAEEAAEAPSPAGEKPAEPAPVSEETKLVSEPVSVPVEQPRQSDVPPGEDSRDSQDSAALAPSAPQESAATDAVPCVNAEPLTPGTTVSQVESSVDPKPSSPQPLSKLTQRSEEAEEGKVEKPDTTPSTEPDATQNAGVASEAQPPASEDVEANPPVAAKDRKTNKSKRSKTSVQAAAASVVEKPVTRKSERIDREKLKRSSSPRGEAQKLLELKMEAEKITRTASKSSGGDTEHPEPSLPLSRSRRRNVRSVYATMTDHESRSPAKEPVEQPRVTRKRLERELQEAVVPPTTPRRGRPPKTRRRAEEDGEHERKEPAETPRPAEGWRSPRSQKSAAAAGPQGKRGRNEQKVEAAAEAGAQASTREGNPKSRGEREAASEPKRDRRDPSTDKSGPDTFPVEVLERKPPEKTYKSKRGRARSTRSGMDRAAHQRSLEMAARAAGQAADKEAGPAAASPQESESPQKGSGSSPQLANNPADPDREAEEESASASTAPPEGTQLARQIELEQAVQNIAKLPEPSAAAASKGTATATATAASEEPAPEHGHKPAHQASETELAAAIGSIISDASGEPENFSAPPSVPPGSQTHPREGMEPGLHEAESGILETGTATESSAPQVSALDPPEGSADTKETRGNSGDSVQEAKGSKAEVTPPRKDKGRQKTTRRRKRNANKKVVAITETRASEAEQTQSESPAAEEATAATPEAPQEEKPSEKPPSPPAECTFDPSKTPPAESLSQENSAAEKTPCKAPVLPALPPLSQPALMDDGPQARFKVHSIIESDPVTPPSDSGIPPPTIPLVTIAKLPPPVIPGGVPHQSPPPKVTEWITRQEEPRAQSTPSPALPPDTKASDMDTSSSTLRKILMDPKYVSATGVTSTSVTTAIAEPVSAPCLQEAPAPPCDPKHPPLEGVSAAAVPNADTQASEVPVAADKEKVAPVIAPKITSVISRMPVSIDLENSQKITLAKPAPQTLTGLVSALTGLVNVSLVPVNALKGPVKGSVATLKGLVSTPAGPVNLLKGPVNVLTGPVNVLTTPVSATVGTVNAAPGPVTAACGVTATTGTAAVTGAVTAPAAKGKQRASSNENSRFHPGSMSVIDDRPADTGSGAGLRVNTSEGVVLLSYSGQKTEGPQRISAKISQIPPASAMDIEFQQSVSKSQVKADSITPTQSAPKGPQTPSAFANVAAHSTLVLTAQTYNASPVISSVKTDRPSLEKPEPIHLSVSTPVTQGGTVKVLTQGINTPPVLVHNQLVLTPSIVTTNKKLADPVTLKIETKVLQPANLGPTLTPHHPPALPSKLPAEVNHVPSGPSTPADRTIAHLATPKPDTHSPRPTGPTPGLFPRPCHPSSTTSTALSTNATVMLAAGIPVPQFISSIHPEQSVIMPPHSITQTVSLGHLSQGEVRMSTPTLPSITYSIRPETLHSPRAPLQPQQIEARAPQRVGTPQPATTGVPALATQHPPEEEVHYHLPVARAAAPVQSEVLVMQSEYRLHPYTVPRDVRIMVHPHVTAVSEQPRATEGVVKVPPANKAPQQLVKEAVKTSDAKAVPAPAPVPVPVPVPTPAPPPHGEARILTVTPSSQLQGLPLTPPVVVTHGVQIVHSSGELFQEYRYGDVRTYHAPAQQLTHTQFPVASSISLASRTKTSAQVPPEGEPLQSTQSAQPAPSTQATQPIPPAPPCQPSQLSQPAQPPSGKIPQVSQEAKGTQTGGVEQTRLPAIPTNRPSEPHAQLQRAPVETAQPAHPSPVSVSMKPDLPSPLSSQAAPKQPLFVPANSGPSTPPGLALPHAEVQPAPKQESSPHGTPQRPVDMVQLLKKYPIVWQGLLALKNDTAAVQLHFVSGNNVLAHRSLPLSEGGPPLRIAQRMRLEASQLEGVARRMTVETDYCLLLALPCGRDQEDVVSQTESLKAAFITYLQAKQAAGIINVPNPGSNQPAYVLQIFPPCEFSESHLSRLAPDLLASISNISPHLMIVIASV
Data set [9] concerns ΔRS-LBR deletion of amino acids 71-90 (Homo sapiens). To be noted: FLAG IP RT-qPCR, UV crosslinked. Background: Real-time PCR tracks product formation cycle by cycle.
The subject of data set [10] is PTBP1 (Mus musculus). To be noted: UV crosslinked RIP; CLIP site 10859-11344.

Where two headings read alike, the source gives them in different places.

Turning to Xist lncRNA, the binding signal (SILAC ratio Xist/U1) in [1] and in [2] was greater than 3 in each case. For the same substance, the binding signal (fold over input) in [3], in data set [4], in [5], in data set [6], in [7] and in data set [10] was greater than 4 each time. Moreover, in [8] (RA-treated female ES cells, CLIP site 317-1056), the binding signal (fold over IgG) was greater than 45. Also, the binding signal (% reduced binding) in data set [9] came out at 97.
In data set [8] (female ES cells), 45S pre-rRNA gave a binding signal (fold over IgG) of less than 1.
Same read-out and setting: with Neat1 lncRNA the figure was less than 1.
